By stoichiometry N is commonly meant a count of units in the complex or per binding partner.

The series concerns the molecule itself. Nature of the series: cryo-EM structure.

B1: Bat SARS-like coronavirus WIV1 spike protein ectodomain (domain or fragment)
chain: not shown
notes: also called bCoV-WIV1; bat SL-CoV WIV1
B1: the “stoichiometry N” value is 3.
